Source: patent US20100310646A1 (AARHUS UNIVERSITET, published 2010)
Like-named read-outs stand apart in the source and are kept apart here.

B1: PAC1 (PAPP-A exosite antibody, scFv) (scFv)
scFv: EVQLLESGGGLVQPGGSLRLSCAASGFTFSSYAMSWVRQAPGKGLEWVSVITDMGRTTRYADSVKGRFTISRDNSKNTLYLQMNSLRAEDTAVYYCAKGLRQFDYWGQGTLVTVSSGGGGSGGGGSGGGGSTDIQMTQSPSSLSASVGDRVTITCRASQSISSYLNWYQQKPGKAPKLLIYHASQLQSGVPSRFSGSGSGTDFTLTISSLQPEDFATYYCQQYGGNPTTFGQGTKVEIKRAAAHHHHHHGAAEQKLISEEDLNGAA
notes: Selected from the Tomlinson I+J phage libraries and produced in E. coli HB2151; Purified scFv was used in SPR and cleavage assays; also called scFv PAC1; antibody PAC1
B2: PAC2 (PAPP-A exosite antibody, scFv) (scFv)
scFv: EVQLLESGGGLVQPGGSLRLSCAASGFTFSSYAMSWVRQAPGKGLEWVSSIQADGTRTGYADSVKGRFTISRDNSKNTLYLQMNSLRAEDTAVYYCAKQRGIFDYWGQGTLVTVSSGGGGSGGGGSGGGGSTDIQMTQSPSSLSASVGDRVTITCRASQSISSYLNWYQQKPGKAPKLLIYRASGLQSGVPSRFSGSGSGTDFTLTISSLQPEDFATYYCQQSHHYPSTFGQGTKVEIKRAAAHHHHHHGAAEQKLISEEDLNGAA
notes: Selected from the Tomlinson I+J phage libraries; also called scFv PAC2

Legend:
human PAPP-A(E483Q) [1] = biological target: T1, human PAPP-A(E483Q) (human, UniProt Q13219 82-1627); experiment: SPR (BIAcore T100), PAPP-A immobilized on CM5 chip, PAC1 0.35-11 nM injected at 37 C, 1:1 model, global fit; SPR, 37 C, PAPP-A on the chip
T1 construct: Active-site mutant; also called immobilized PAPP-A (SPR)
Method: (§1) A) Cleavage of IGFBP-4 (10 nM) by human PAPP-A (0.1 nM) in the presence of PAC1 (1.5 μM). The cleavage reaction was incubated (37° C.), and samples were taken out at intervals from 0 to 60 min, as indicated above each lane. The cleavage was visualized by SDS-PAGE followed by autoradiography. At 60 min, a faint band is visible at the position of the cleavage products (c). B) Cleavage of IGFBP-4 (10 nM) by murine PAPP-A (0.1 nM) for 1 h at 37° C. in the presence of 0-750 nM PAC1, as indicated above each lane. C) Cleavage of IGFBP-4 (10 nM) by PAPP-A (0.1 nM) was analyzed at different concentrations of PAC1. Relative initial velocities, determined independently, are plotted as a function of PAC1 concentration. All concentrations were determined by amino acid analysis (IGFBP-4 and PAC1) or ELISA (PAPP-A). Assuming competitive inhibition, an inhibitory constant was calculated (Kᵢ=1.2 nM±0.1). D) Sensorgrams showing binding of PAC1 to immobilized human PAPP-A. Purified PAC1 (0.35, 0.7, 1.4, 2.8, 5.5, and 11 nM) was injected onto the chip at 37° C. for 120 s followed by dissociation for 300 s.
(§2) Surface plasmon resonance analysis—Surface plasmon resonance experiments were carried out on a BIAcore T100 instrument (BIAcore AB, Uppsala, Sweden) using series S CM5 sensor chips and coupling reagents supplied by the manufacturer. Affinity purified PAPP-A(E483Q), 10 μg/mL in 10 mM sodium acetate, pH 5.0, was immobilized (at a level of 500 resonance units (RU)) to the activated chip at 25° C. Remaining activated groups were blocked by 1M ethanolamine. Purified antibodies (0.35-11 nM) diluted in 10 mM HEPES, 150 mM NaCl, 1 mM CaCl₂, 0.05% Tween-20, pH 7.4 (HBS), were injected over the sensor chip for 2 min at a flow rate of 30 μL/min at 37° C. Recorded signals were subtracted the background signal, determined by the injection of an irrelevant antibody. […] Data were analyzed using the software of the manufacturer (BIAcore T100 evaluation Software version 1.1).

[2] = biological target: T2, human pregnancy-associated plasma protein-A (PAPP-A) (human, UniProt Q13219 82-1627); experiment: cell-based or functional assay
[3] = biological target: T2, human pregnancy-associated plasma …; experiment: inhibition of IGFBP-4 (10 nM) cleavage by human PAPP-A (0.1 nM), relative initial velocities against PAC1 concentration, competitive inhibition assumed; IGFBP-4 cleavage assay, competitive inhibition assumed
Method: as §1, with “D) Sensorgrams showing binding of PAC1 to immobilized human PAPP-A. Purified PAC1 (0.35, 0.7, 1.4, 2.8, 5.5, and 11 nM) was injected onto the chip at 37° C. for 120 s followed by dissociation for 300 s.” left out
Measurement of proteolytic activity—Proteolytic activity of PAPP-A against IGFBP-4 and -5 was analyzed as previously described in detail (45). In brief, purified substrates, quantified by amino acid analysis, were labelled with ¹²⁵I (Amersham Biosciences). […] The degree of cleavage was determined by quantification of band intensities using a Typhoon imaging system (GE Healthcare), and background levels (mock signals) were subtracted. […]

human PAPP-A(D1499A) = human PAPP-A(D1499A) (human, UniProt Q13219 82-1627); experiment: binding to alanine mutants of human PAPP-A (ELISA per paragraph 531)
Method: (§3) A, PAC1 binding to human PAPP-A/PAPP-A2 chimeras or truncated human PAPP-A variants analyzed by ELISA. Sequence derived from PAPP-A is shown by open bars, and absence of binding (−) or binding (+) is indicated. […] Samples with or without EDTA (10 mM) were injected (120 s) followed by dissociation (180 s) (solid lines). […] The absence of binding (−) or binding (+) is indicated. PAC5, which was used as a positive control, binds to an epitope of PAPP-A located N-terminal to CCP1.
(§4) Determination of antibody specificity and mapping of antibody binding—Mapping of antibody binding was carried out by ELISA using PAPP-A/PAPP-A2 chimeric proteins, and mutated variants of PAPP-A. The proteins were immobilized with polyclonal PAPP-A antibodies, and binding of phage antibodies were analyzed as detailed above.

human PAPP-A(D1502A) = human PAPP-A(D1502A) (human, UniProt Q13219 82-1627); experiment: as above
Method: as §3, §4

human PAPP-A(D1484A) = human PAPP-A(D1484A) (human, UniProt Q13219 82-1627); experiment: as above
Method: as §3, §4

[4] = biological target: human PAPP-A R1529A mutant (human, UniProt Q13219 82-1627); experiment: as above
Method: as §3, §4

[5] = biological target: human PAPP-A D1530A mutant (human, UniProt Q13219 82-1627); experiment: as above
Method: as §3, §4

[6] = biological target: T2, human pregnancy-associated plasma …; experiment: cell-based or functional assay; remark: listed apart in the source
human PAPP-A(E483Q) [7] = biological target: T1, human PAPP-A(E483Q); experiment: SPR, calcium ion dependence of binding to immobilized PAPP-A
Method: as §2
However, the binding was only disturbed when PAC1 was injected with EDTA onto a chip equilibrated with the calcium ion containing buffer (FIG. 8B). Following EDTA treatment, equilibration of the flow cell using calcium ion containing buffer restored its ability to bind PAC1 (FIG. 8B). […] Similar results were obtained with PAC2 (not shown).

[8] = biological target: human PAPP-A E1535A mutant (human, UniProt Q13219 82-1627); experiment: binding to alanine mutants of human PAPP-A (ELISA per paragraph 531)
Method: as §3, §4

[9] = biological target: human PAPP-A K1509A mutant (human, UniProt Q13219 82-1627); experiment: as above
Method: as §3, §4

[10] = biological target: human PAPP-A D1525A mutant (human, UniProt Q13219 82-1627); experiment: as above
Method: as §3, §4

T2 sequence (Q13219 other isoform, or with tags, fused parts or gaps limits assumed): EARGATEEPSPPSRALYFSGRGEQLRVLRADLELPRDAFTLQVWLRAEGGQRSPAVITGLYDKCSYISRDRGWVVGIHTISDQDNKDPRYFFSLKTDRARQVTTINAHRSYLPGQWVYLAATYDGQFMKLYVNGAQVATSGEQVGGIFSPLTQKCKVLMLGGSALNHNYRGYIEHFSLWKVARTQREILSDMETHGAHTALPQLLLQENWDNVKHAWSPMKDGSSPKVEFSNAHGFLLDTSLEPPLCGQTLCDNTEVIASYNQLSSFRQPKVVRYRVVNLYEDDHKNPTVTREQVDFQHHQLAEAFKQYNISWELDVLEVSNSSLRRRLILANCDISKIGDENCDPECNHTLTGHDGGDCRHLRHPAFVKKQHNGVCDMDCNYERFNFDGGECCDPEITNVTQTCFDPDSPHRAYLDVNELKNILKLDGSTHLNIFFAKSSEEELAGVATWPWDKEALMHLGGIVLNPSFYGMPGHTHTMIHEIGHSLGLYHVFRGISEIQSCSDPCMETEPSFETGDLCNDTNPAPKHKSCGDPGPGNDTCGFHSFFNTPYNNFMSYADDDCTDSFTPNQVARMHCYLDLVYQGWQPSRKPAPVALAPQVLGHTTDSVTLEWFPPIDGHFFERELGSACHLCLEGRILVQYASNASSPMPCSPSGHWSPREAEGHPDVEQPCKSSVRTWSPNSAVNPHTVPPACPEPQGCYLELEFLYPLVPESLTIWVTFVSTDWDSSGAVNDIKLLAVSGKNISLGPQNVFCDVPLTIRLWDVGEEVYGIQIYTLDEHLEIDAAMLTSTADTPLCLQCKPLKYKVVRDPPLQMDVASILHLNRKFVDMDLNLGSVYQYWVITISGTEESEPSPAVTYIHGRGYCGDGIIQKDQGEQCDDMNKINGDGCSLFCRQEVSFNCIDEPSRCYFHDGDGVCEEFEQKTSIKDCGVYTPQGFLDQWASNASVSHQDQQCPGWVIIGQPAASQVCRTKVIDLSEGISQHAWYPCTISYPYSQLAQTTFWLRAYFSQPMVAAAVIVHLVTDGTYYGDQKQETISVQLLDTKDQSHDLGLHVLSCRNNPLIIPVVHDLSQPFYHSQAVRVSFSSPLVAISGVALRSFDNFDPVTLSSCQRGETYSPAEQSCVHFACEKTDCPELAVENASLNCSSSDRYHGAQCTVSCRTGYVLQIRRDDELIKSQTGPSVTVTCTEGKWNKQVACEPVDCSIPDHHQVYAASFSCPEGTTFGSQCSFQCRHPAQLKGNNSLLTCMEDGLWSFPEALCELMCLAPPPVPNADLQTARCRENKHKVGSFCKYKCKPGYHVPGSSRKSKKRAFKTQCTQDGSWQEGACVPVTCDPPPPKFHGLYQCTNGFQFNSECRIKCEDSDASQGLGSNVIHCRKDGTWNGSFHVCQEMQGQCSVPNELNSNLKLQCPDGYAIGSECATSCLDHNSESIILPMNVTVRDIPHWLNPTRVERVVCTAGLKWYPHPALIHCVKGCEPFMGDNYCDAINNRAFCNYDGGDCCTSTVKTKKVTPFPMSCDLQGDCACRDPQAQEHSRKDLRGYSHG
T1 sequence (Q13219 other isoform, or with tags, fused parts or gaps E483Q E483Q limits assumed): as the sequence (Q13219 other isoform, or with tags, fused parts or gaps limits assumed) above, with E483Q counted along it
human PAPP-A(D1499A), sequence (Q13219 other isoform, or with tags, fused parts or gaps D1499A D1499A limits assumed): as the sequence (Q13219 other isoform, or with tags, fused parts or gaps limits assumed) above, with D1499A counted along it
human PAPP-A R1529A mutant, sequence (Q13219 other isoform, or with tags, fused parts or gaps R1529A R1529A limits assumed): as the sequence (Q13219 other isoform, or with tags, fused parts or gaps limits assumed) above, with R1529A counted along it
human PAPP-A(D1502A), sequence (Q13219 other isoform, or with tags, fused parts or gaps D1502A D1502A limits assumed): as the sequence (Q13219 other isoform, or with tags, fused parts or gaps limits assumed) above, with D1502A counted along it
human PAPP-A(D1484A), sequence (Q13219 other isoform, or with tags, fused parts or gaps D1484A D1484A limits assumed): as the sequence (Q13219 other isoform, or with tags, fused parts or gaps limits assumed) above, with D1484A counted along it
human PAPP-A D1530A mutant, sequence (Q13219 other isoform, or with tags, fused parts or gaps D1530A D1530A limits assumed): as the sequence (Q13219 other isoform, or with tags, fused parts or gaps limits assumed) above, with D1530A counted along it
human PAPP-A D1525A mutant, sequence (Q13219 other isoform, or with tags, fused parts or gaps D1525A D1525A limits assumed): as the sequence (Q13219 other isoform, or with tags, fused parts or gaps limits assumed) above, with D1525A counted along it
human PAPP-A E1535A mutant, sequence (Q13219 other isoform, or with tags, fused parts or gaps E1535A E1535A limits assumed): as the sequence (Q13219 other isoform, or with tags, fused parts or gaps limits assumed) above, with E1535A counted along it
human PAPP-A K1509A mutant, sequence (Q13219 other isoform, or with tags, fused parts or gaps K1509A K1509A limits assumed): as the sequence (Q13219 other isoform, or with tags, fused parts or gaps limits assumed) above, with K1509A counted along it

Row | Binder | Kd (human PAPP-A(E483Q) [1]) | koff (human PAPP-A(E483Q) [1]) | kon (human PAPP-A(E483Q) [1]) | IC50 (read off the curve) [2] | Ki [3] | binding result (human PAPP-A(D1499A)) | binding result (human PAPP-A(D1502A)) | binding result (human PAPP-A(D1484A)) | binding result [4] | binding result [5] | IC50 (read off the curve) [6] | binding result (human PAPP-A(E483Q) [7]) | binding result [8] | binding result [9] | binding result [10]
1 | B1 | 0.25 nM | 0.00109 s⁻¹ | 4.36e+06 M⁻¹ s⁻¹ | ~2 nM | 1.2 nM | no binding | no binding | no binding | no binding | no binding | ~1 nM | – | – | – | –
2 | B2 | – | – | – | – | – | no binding | no binding | no binding | no binding | no binding | – | binds | binds | binds | binds
